± gives the half width of the 95% confidence interval.
Experiment: folding stability dG unfold (combined trypsin and chymotrypsin); higher = more stable
Description: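 Folding stability of de novo designed mini-proteins (<80 aa, no Cys; designed by TrROS, TrMRF, ProteinMPNN and the joint model) was measured by cDNA display proteolysis with trypsin and chymotrypsin. Each protease was used at 11 concentrations in a threefold dilution series plus a no-protease condition. K50 was inferred by Bayesian fitting of sequencing counts, and dG unfold was derived against a sequence-predicted unfolded-state K50 (Tsuboyama et al. method). Sequences shown include variable-length N-terminal GS-type padding (SAGGSAGG...) inside a display construct carrying a PA tag. Rows were kept only if the AF2 dimer inter-PAE was >15, to exclude likely homo-oligomers.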

| Sequence | folding stability dG unfold [kcal/mol] |
| --- | --- |
| SAGGSAGGSAVVTLPDGRLLITEKVEEEVVFPDRDRTSKRVTTKTTLIDPATGTVLPASLLSAGGSAGGSAG [r3_394_JUSTAS] | < -1 |
| SAGGSAGGSDINVRVIELPDEDGTPYLLLEADNPEGLSDEIAAAFPPDWDVRTDDDRVWVLRRSAGGSAGGS [r20_189_TrMRF] | < -1 |
| SAGGSAGGSEGKEVVVVPAVGVPPEAVRRALEPLGIRTRVVPVPPVRPFRAADPGRVYYTPVGSAGGSAGGS [r12_80_TrMRF] | < -1 |
| SAGGSAGGSEMKIDRIKIHDFDPDNGNYFVRIRNNGGPKHTFPVKNADELKEHLPGVKVEVIKSAGGSAGGS [r12_403_TrROS] | < -1 |
| SAGGSAGGSEPVPLKVKARFGDPGEEFEADIDIPKEALEGEALTPEQIKEALEALFPDVEIEGSAGGSAGGS [r20_221_TrMRF] | < -1 |
| SAGGSAGGSGAFTADNDGGKVYSARLVPLPPGDRPVAVGLDVPVDKPVLVAVLPDRTVVVPLGSAGGSAGGS [r12_994_TrMRF] | < -1 |
| SAGGSAGGSGFTVLEKDPSTGKVLVRLPPSLVEDVRRLPDVSPVAEEPDSVLLERTIPPGALASAGGSAGGS [r12_694_JUSTAS] | < -1 |
| SAGGSAGGSGMTVEERTSPDGTRVEVYLGPGSVVREESPEGVVTVRTLTDGRVEREEVVPVPASAGGSAGGS [r12_451_JUSTAS] | < -1 |
| SAGGSAGGSGPRAEELVVVNAPPGYRIPTPDGVPVTVPADAPNVLVRVTYGPGSSSVTVELVQSAGGSAGGS [r12_338_JUSTAS] | < -1 |
| SAGGSAGGSGSPSRPSPVLKFTFPKDPKPVTVPIPSGDPAAAAAAAAALEAAHPDTPVAVEAASAGGSAGGS [r12_601_JUSTAS] | < -1 |
| SAGGSAGGSGVKAILDALPPDYTVTVEEEPSGDSYTITVTHPDGASPTLRIDGGGRGELRKALSAGGSAGGS [r12_174_TrMRF] | -0.845 ± 0.74 |
| SAGGSAGGSKDILANFPPGWKIEEEPNPNGMTRIDIKNPNGNEHRMEFPVNGKPIKFTIKPPESAGGSAGGS [r20_50_TrROS] | < -1 |
| SAGGSAGGSLSLSSNPLVTDPETGEVVYPAVADPVGIATAQWPDSTSYTPMPPNVTRVVRPGEASAGGSAGG [r6_627_JUSTAS] | < -1 |
| SAGGSAGGSLTIPLPDGGTLTVVEEDEEEVLVEERKPNPGGSSPATFTRTIRRPPPVLPPKLVSAGGSAGGS [r12_959_JUSTAS] | < -1 |
| SAGGSAGGSMEITVTLPPDQTAEDAIAALPSEYKNVTVLETSTTFPPTTDETPTVTLTIKVTKSAGGSAGGS [r12_822_JUSTAS] | < -1 |
| SAGGSAGGSMFMVKINNGKEIPIPPEDLPPGETVEELADNIPPGMRNIEIYNWDGEEQEIPIDSAGGSAGGS [r20_161_TrROS] | < -1 |
| SAGGSAGGSMTPEKIKKIRKRMEERGYQIPSIETNPGNGMPFININPPDPEMREKDPELRELISAGGSAGGS [r12_482_TrROS] | < -1 |
| SAGGSAGGSNWTIKVNIVEKPNGKKYIPITMRPPNGNTREGPMPADEIKDRFGMPAEDIAKAISAGGSAGGS [r20_235_TrROS] | < -1 |
| SAGGSAGGSPAFTVPREVKVGDKPVTVEVDGEGRVTIRTPEGGSESEPVGSPGPAPVAFRITLKSAGGSAGG [r6_241_JUSTAS] | < -1 |

| Sequence | folding stability dG unfold [kcal/mol] |
| --- | --- |
| SAGGSAGGSPIMVRVERRDKDGKKKPVPTIPIPINNDDPEEALEWANEIAKKAGARDVRVEIWSAGGSAGGS [r12_569_TrROS] | < -1 |
| SAGGSAGGSPVDEIIEEIKKKGYKANVKSVSVSPNSKGELEIELEINIEKPEPKGTEENIKKKSAGGSAGGS [r12_120_JUSTAS] | < -1 |
| SAGGSAGGSSPSDTVTAELRYVLPDGTPVERTLSLTDLPSSVTPEDTLTLPGPGLRARILAVTGSAGGSAGG [r6_561_JUSTAS] | < -1 |
| SAGGSAGGSTIMIPPGMPPEEAKAWARDIAREQGFPPGRDLNVEVEPQPFDGGPWYTIDIEWDSAGGSAGGS [r12_252_TrROS] | < -1 |
| SAGGSAGGSTWEEVKKKAKEAGPELDFEPSPEGEKKFKIVAPKDKPEAVEALAKEYNVELEIESAGGSAGGS [r12_74_TrMRF] | < -1 |
| SAGGSAGGSVKDKNGTPYSVKEAKEKKLPNGTLVIELTLPESGKKITIPKKDIPKGISSEAKLKSAGGSAGG [r6_371_JUSTAS] | < -1 |
| SAGGSAGGSVVIPESVISNMKEEEIRELIKKNPKPVLLVTENPEVRKKAEEIFKKEGYPLVVGSAGGSAGGS [r12_97_TrMRF] | < -1 |
| SAGGSAGGSVVPPEEEETVEKKETLTDPVTGKEYLSRRRVTYRPSKPEKVAEEEEIIPPDEPLSAGGSAGGS [r12_868_JUSTAS] | < -1 |
| SAGGSAGGSVYYDESEDGVFVRVEGDGAPRVFPVADPEEARYRRIPTPDGRPVRVELRPSEEGSAGGSAGGS [r12_730_TrMRF] | < -1 |
| SAGGSAGGVEVEADPEYEVEVFEDPETGAVVAIVKGPDEVERALRFIPETGEPVELPLEEFEPLSAGGSAGG [r6_304_TrMRF] | < -1 |
| SAGGSAGSSSVSTVTPVGDYVVVTVNAPEGSVVTITDPATGTTETRAAPAGATFTVPPNASVSVTNSAGGSA [r15_418_JUSTAS] | < -1 |
| SAGGSALKPGQPVMIHVRLKIERPDPDGDEKKIPEIHIPVPVEEAKDIAEALPPNYKVKIDDISIMSAGGSA [r15_833_TrROS] | < -1 |
| SAGGSAMKFYIKYDPKKEKTILILPENNPDLEGNDGSKVIKVENEEELIKLIEEAKKKGIKKIEIKSAGGSA [r15_1004_TrMRF] | < -1 |
| SAGGSAMKYTLKDKDGKTITIEVEEHENPDGEPWYEVDIEHPNDGKEKKVYMPPNNPEEFAKKFLKSAGGSA [r15_92_TrROS] | < -1 |
| SAGGSAPIKITIHWDPENGMYRIKGKTPDGPVEYPFPRDELRNMPIENFADELNYEIKDVEIEPYPSAGGSA [r15_801_TrROS] | < -1 |
| SAGGSAPKRRIEIYPNPNGMYRIKVSNPDGKKREHTIDGPGMPLEQLANKLNIPPGFKIDEIEPYPSAGGSA [r15_167_TrROS] | < -1 |
| SAGGSAPPLTEVTLTEVSTDPETGTTTLTLEASGPVESVPLEFPDGRSVKAERLPDGTLVVTNPGASAGGSA [r15_736_JUSTAS] | < -1 |
| SAGGSASPDTRLVRIELKSNVPGTGIEVTETVPLVELEPDEPAEAVAEEVRAAHPVDEVTVTVDPASAGGSA [r15_540_JUSTAS] | < -1 |
| SAGGSASSMVSSLPLKVDPKEKARAEAEKLAEEKLEEEPDLEGTVEVELEMETPDKKIKVRLEIKKSAGGSA [r15_729_JUSTAS] | < -1 |

| Sequence | folding stability dG unfold [kcal/mol] |
| --- | --- |
| SAGGSATIEEILKEIAEPHGAEPEVDPNSGVIEVDFPNGQEHTINVDDGKPIKIKYNPPGRMYIEISAGGSA [r15_256_TrROS] | < -1 |
| SAGGSAYITIDDIKKLGPNMPIMVEPPKGRLMIFSPNQMVKITIDPDDDTIKVKEVFDSPEAMEKLSAGGSA [r15_6_TrROS] | < -1 |
| SAGGSEPFTPEDLIRKALPVKPKAVVIPGPVSEEEIKALLDAGIPVVIIGKDGSRAVAVGDEVKPLSAGGSA [r2_33_TrMRF] | < -1 |
| SAGGSEVFVLPNGAVAVVEPDPDGVRVARVPGLPGVAVRYPPATRRWVLVTVDPRKGGPRTFTLTGSAGGSA [r2_477_TrMRF] | < -1 |
| SAGGSGGSTTPTFEEHVITGPLPVEIKVKKTTLNVTGSSAPSTTTTTTFYDPSGKKLSTKTTTTSSSAGGSA [r2_215_JUSTAS] | < -1 |
| SAGGSITISMPWNDPEKAAKALEEAFGVDVPPKVERDPGNGWYTITLPNLGRKIQIDGNKVKIEPPSAGGSA [r2_205_TrROS] | < -1 |
| SAGGSKVPLDDFDKVTIGVDPKTGKTTASIYYPSDGSTVTFPGKEIPEVLASNPNIKTVETEPLPGSAGGSA [r2_159_JUSTAS] | < -1 |
| SAGGSMKSEKVFTDPGPFDGASVTVTATEDGTITITVVDPDGVPKTFTKKVEKGNPEEVVKEAIKESAGGSA [r2_298_TrMRF] | < -1 |
| SAGGSMPIDDIKEINIQYNPNTGTVMVPFRLPNGHEIMAEQKYDPEAGWPVIPIRVNDGKPIEIPISAGGSA [r2_490_TrROS] | < -1 |
| SAGGSPITPEIAQELAEEFPNWDIHVEPRKPGEEIRFPNGMRIFDDPNGYRVMVHNPNGKPRQLPVSAGGSA [r2_166_TrROS] | < -1 |
| SAGGSPPVPDDETVEIEVPDYKITFHPATQEVTVQTNDPAKAKAVIEALPYPIPYKNIKIVPPEKLSAGGSA [r2_418_JUSTAS] | < -1 |
| SAGGSPVVPLPPDATATLTETVKVPRVLFDEEGNELEKLEVERTVTTTYTRLPGGEVATTTTTTTESAGGSA [r2_154_JUSTAS] | < -1 |
| SAGGSTYTVTRTEELPDGTVRAELTVTLDGAPVPATGTTETAPGGRRRVTVTFPSDPSLSLTTPEESAGGSA [r2_376_JUSTAS] | < -1 |
| SAGGTELAERIRAMGGFEVVEIKEGEGKPKVTVRTPDPALAEELRAFLAADPRVESVELEELSPELKSAGGS [r16_671_JUSTAS] | < -1 |
| SAGIRFRPGARIEWQNPDNGKKVEIRMREIRDRIQEINGNENPEQITAEQIQEWAREHGFRPIKIEPPSAGG [r19_67_TrROS] | < -1 |
| SAGKIKEIEMDPPHNQMTLELPEKGRKITINPNMGHLDIEPPDGKPREVPVPNPSDMKEAIKKVLKELKSAG [r5_467_TrROS] | < -1 |
| SAGKIRIVDSPDQLENAPPGDIVIHHRPSPETGRPRVRLAKYPDGKWEPLARMDSDGKIELPKELKEAISAG [r5_490_TrROS] | < -1 |
| SAGKPRPIINIEWQPNPDGQPNLTISVMRRDPKNGDMKPREYTIDPGADPEDLIKKALDEGADYVSIHPSAG [r5_37_TrROS] | < -1 |
| SAGMKPGEPIMTIKIKVKDPDNGKEVPINIPVRYQYDNGEPKRPISPDDALEEAKDLADRLKKDPNIKISAG [r5_426_TrROS] | < -1 |
